# Source: FireProtDB (doi:10.1016/j.jmb.2009.07.074)
# B1: Cytochrome c', P00149 (parent)
# chain: MKLRIATIAGLVVLGSGFAVAQTDVIAQRKAILKQMGEATKPIAAMLKGEAKFDQAVVQKSLAAIADDSKKLPALFPADSKTGGDTAALPKIWEDKAKFDDLFAKLAAAATAAQGTIKDEASLKANIGGVLGNCKSCHDDFRAKKS
# Variants of: B1
# Settings: Rhodopseudomonas palustris (strain ATCC BAA-98 / CGA009); pH 6.5; 25 °C; GdnHCl; CD; MES 20 mM; NaCl 40 mM; structure 1A7V; whole UniProt chain shown
Variant,denaturant m value [kcal/mol/M],denaturant midpoint (higher = more stable) [M],unfolding free energy [kcal/mol]
MKLRIATIAGLVVLGSGFAVAQTDVIAQRKAILKQMGEATKPIAAMLKGEAKFDQAVVQKSLAAIADDSKKLPALFPADSKTGGDTAALPKIWEDKAKFDDLFAKLAAAATAAQGTIHDEASLKANIGGVLGNCKSCHDDFRAKKS [K118H],5.28,1.29,6.8
MKLRIATIAGLVVLGSGFAVAQTDVIAQRKAILHQMGEATKPIAAMLKGEAKFDQAVVQKSLAAIADDSKKLPALFPADSKTGGDTAALPKIWEDKAKFDDLFAKLAAAATAAQGTIKDEASLKANIGGVLGNCKSCHDDFRAKKS [K34H],4.91,1.66,8.17
MKLRIATIAGLVVLGSGFAVAQTDVIAQRKAILKQMGEATKPIAAMLKGEAKFDQAVVQKSLAAIADDSKKLPALFPADSKTGGDTAALPKIWEDKAKFDDLFAKLAAAATHAQGTIKDEASLKANIGGVLGNCKSCHDDFRAKKS [A112H],5.75,1.23,7.07
MKLRIATIAGLVVLGSGFAVAQTHVIAQRKAILKQMGEATKPIAAMLKGEAKFDQAVVQKSLAAIADDSKKLPALFPADSKTGGDTAALPKIWEDKAKFDDLFAKLAAAATAAQGTIKDEASLKANIGGVLGNCKSCHDDFRAKKS [D24H],5.08,1.46,7.41
MKLRIATIAGLVVLGSGFAVAQTDVIAQRKAILKQMGEATKPIAAMLKGEAKFDQAVVQKSLAAIADDSKKLPALFPADSKTGGDTAALPKIWEDKAKFDDLFAHLAAAATAAQGTIKDEASLKANIGGVLGNCKSCHDDFRAKKS [K105H],5.32,1.11,5.89
MKLRIATIAGLVVLGSGFAVAQTDVIAQRKAILKQMGEATKPIAAMLKGEAKFDQAVVQKSLAAIADDSKKLPALFPADSKTGGDTHALPKIWEDKAKFDDLFAKLAAAATAAQGTIKDEASLKANIGGVLGNCKSCHDDFRAKKS [A87H],4.88,1.39,6.79
MKLRIATIAGLVVLGSGFAVAQTDVIAQRKAILKQMGEATKPIAAMLKGEAKFDQAVVQKSLAAIADDSKKLPALFPAHSKTGGDTAALPKIWEDKAKFDDLFAKLAAAATAAQGTIKDEASLKANIGGVLGNCKSCHDDFRAKKS [D79H],4.8,1.4,6.72
MKLRIATIAGLVVLGSGFAVAQTDVIAQRKAILKQMGEATKPIAAMLKGEAHFDQAVVQKSLAAIADDSKKLPALFPADSKTGGDTAALPKIWEDKAKFDDLFAKLAAAATAAQGTIKDEASLKANIGGVLGNCKSCHDDFRAKKS [K52H],5.04,1.47,7.41
MKLRIATIAGLVVLGSGFAVAQTDVIAQRKAILKQMGEATKPIAAMLKGEAKFDQAVVQKSLAAIADDSKKLPALFPADSKTGGDTAALPKIWHDKAKFDDLFAKLAAAATAAQGTIKDEASLKANIGGVLGNCKSCHDDFRAKKS [E94H],5.08,1.13,5.76
MKLRIATIAGLVVLGSGFAVAQTDVIAQRKAILKQMGEATKPIAAMLKGEAKFDQAVVQKSLAAIADDSKKLPALFPADSKTGGDTAALPKIWEDKAKFDDLFAKLAAAATAAQGTIKDEASLKHNIGGVLGNCKSCHDDFRAKKS [A125H],5.59,1.09,6.08
MKLRIATIAGLVVLGSGFAVAQTDVIAQRKAILKQMGEATKPIAAMLKGEAKFDQAVVQKSLAAIADDSHKLPALFPADSKTGGDTAALPKIWEDKAKFDDLFAKLAAAATAAQGTIKDEASLKANIGGVLGNCKSCHDDFRAKKS [K70H],4.66,1.45,6.75
